From patent publication US6627739

How the values were obtained:
[1] = target: Swedish mutant APP (βAPP 751 sw) expressed from pohCK751 in 293T cells, P05067
[2] = target: wild-type APP (βAPP 751) expressed from pohCK751 in 293T cells, P05067
[3] = target: MBP-C125sw fusion protein [MBP: P0AEX9]

Chain of wild-type APP (βAPP 751) expressed from pohCK751 in 293T cells, P05067 (P05067 whole entry, looked up, the tested form may be a part): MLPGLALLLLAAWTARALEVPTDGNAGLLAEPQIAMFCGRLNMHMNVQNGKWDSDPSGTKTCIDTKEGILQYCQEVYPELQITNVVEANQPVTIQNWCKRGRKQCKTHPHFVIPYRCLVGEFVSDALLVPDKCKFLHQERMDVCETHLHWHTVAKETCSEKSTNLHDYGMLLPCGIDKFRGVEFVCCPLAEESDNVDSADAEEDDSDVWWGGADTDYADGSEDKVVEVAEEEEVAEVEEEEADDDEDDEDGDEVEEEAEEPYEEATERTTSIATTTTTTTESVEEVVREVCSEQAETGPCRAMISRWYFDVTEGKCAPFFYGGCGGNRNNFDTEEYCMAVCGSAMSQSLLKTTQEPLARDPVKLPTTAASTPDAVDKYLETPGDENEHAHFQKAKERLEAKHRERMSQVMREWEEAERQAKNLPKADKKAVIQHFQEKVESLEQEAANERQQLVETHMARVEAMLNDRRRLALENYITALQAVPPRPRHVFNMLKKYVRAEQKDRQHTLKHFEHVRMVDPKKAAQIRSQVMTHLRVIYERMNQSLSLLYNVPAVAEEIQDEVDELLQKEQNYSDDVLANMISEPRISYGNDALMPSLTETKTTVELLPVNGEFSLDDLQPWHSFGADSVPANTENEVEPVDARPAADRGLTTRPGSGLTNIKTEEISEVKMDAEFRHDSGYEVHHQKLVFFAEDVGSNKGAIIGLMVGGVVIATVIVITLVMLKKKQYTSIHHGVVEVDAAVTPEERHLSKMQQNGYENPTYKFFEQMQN
Chain of Swedish mutant APP (βAPP 751 sw) expressed from pohCK751 in 293T cells, P05067 (P05067 whole entry, looked up, change not shown): as the sequence (P05067 whole entry, looked up, the tested form may be a part) above

B1: recombinant full-length human β-secretase (1-501) expressed from pCEK clone 27 / pCFβA2 in 293T or Cos A2 cells (protein)
chain: ETDEEPEEPGRRGSFVEMVDNLRGKSGQGYYVEMTVGSPPQTLNILVDTGSSNFAVGAAPHPFLHRYYQRQLSSTYRDLRKGVYVPYTQGKWEGELGTDLVSIPHGPNVTVRANIAAITESDKFFINGSNWEGILGLAYAEIARPDDSLEPFFDSLVKQTHVPNLFSLQLCGAGFPLNQSEVLASVGGSMIIGGIDHSLYTGSLWYTPIRREWYYEVIIVRVEINGQDLKMDCKEYNYDKSIVDSGTTNLRLPKKVFEAAVKSIKAASSTEKFPDGFWLGEQLVCWQAGTTPWNIFPVISLYLMGEVTNQSFRITILPQQYLRPVEDVATSQDDCYKFAISQSSTGTVMGAVIMEGFYVVFDRARKRIGFAVSACHVHDEFRTAAVEGPFVTLDMEDCGYNIPQTDESTLMTIAYVMAAICALFMLPLCLMVCQWRCLRCLRQQHDDFADDISLLK
Aβ(x-40) production, ELISA of conditioned media [1]: approximate 2-fold increase in Aβ(x-40) | Aβ(x-40) production, ELISA of conditioned media [2]: approximately 8-fold increase in Aβ(x-40) production

B2: naturally occurring human β-secretase purified from human brain (protein)
chain: ETDEEPEEPGRRGSFVEMVDNLRGKSGQGYYVEMTVGSPPQTLNILVDTGSSNFAVGAAPHPFLHRYYQRQLSSTYRDLRKGVYVPYTQGKWEGELGTDLVSIPHGPNVTVRANIAAITESDKFFINGSNWEGILGLAYAEIARPDDSLEPFFDSLVKQTHVPNLFSLQLCGAGFPLNQSEVLASVGGSMIIGGIDHSLYTGSLWYTPIRREWYYEVIIVRVEINGQDLKMDCKEYNYDKSIVDSGTTNLRLPKKVFEAAVKSIKAASSTEKFPDGFWLGEQLVCWQAGTTPWNIFPVISLYLMGEVTNQSFRITILPQQYLRPVEDVATSQDDCYKFAISQSSTGTVMGAVIMEGFYVVFDRARKRIGFAVSACHVHDEFRTAAVEGPFVTLDMEDCGYNIPQTDESTLMTIAYVMAAICALFMLPLCLMVCQWRCLRCLRQQHDDFADDISLLK
Specific Activity (MBP-C125 sw assay), Anion Exchange Pool (nM/h/µg prot.) [3]: 1.49e+06

B3: 452stop, recombinant β-secretase truncated at position 452 (1-452) (protein)
chain: ETDEEPEEPGRRGSFVEMVDNLRGKSGQGYYVEMTVGSPPQTLNILVDTGSSNFAVGAAPHPFLHRYYQRQLSSTYRDLRKGVYVPYTQGKWEGELGTDLVSIPHGPNVTVRANIAAITESDKFFINGSNWEGILGLAYAEIARPDDSLEPFFDSLVKQTHVPNLFSLQLCGAGFPLNQSEVLASVGGSMIIGGIDHSLYTGSLWYTPIRREWYYEVIIVRVEINGQDLKMDCKEYNYDKSIVDSGTTNLRLPKKVFEAAVKSIKAASSTEKFPDGFWLGEQLVCWQAGTTPWNIFPVISLYLMGEVTNQSFRITILPQQYLRPVEDVATSQDDCYKFAISQSSTGTVMGAVIMEGFYVVFDRARKRIGFAVSACHVHDEFRTAAVEGPFVTLDMEDCGYNIPQTDEYKDDDDK
cleavage of substrate [3]: The C-terminal truncated form of the enzyme exhibited activity in leaving the MBP-C125sw substrate as well as the P26-P4′ substrate

B4: FLp501, full length recombinant β-secretase having a C-terminal flag sequence (protein)
chain: ETDEEPEEPGRRGSFVEMVDNLRGKSGQGYYVEMTVGSPPQTLNILVDTGSSNFAVGAAPHPFLHRYYQRQLSSTYRDLRKGVYVPYTQGKWEGELGTDLVSIPHGPNVTVRANIAAITESDKFFINGSNWEGILGLAYAEIARPDDSLEPFFDSLVKQTHVPNLFSLQLCGAGFPLNQSEVLASVGGSMIIGGIDHSLYTGSLWYTPIRREWYYEVIIVRVEINGQDLKMDCKEYNYDKSIVDSGTTNLRLPKKVFEAAVKSIKAASSTEKFPDGFWLGEQLVCWQAGTTPWNIFPVISLYLMGEVTNQSFRITILPQQYLRPVEDVATSQDDCYKFAISQSSTGTVMGAVIMEGFYVVFDRARKRIGFAVSACHVHDEFRTAAVEGPFVTLDMEDCGYNIPQTDESTLMTIAYVMAAICALFMLPLCLMVCQWRCLRCLRQQHDDFADDISLLKYKDDDDK
cleavage of substrate [3]: Both enzymes exhibited activity in cleaving β-secretase substrates such as MBP-C125
